What was measured:
[1] = molecular target: T1, XPF deltaNSGW;ERCC1 wild type (hsERCC1) (Xenopus laevis;Homo sapiens?, UniProt A0A8J0PXV9;P07992 1-897;1-297, del312-315|); assay: fluorescence anisotropy; 2 mM Ca2+; comparable to wild type; 25 mM Hepes pH 8.0, 15% glycerol, 0.1 mg/ml BSA, 2 mM CaCl2, 10 nM DNA, 1 h at room temperature; conditions: protein: recombinant;recombinant; tags: FLAG;His; copies: 1;1; label: 5'-FAM on F1; three strands 1:1:1
T1 sequence 1: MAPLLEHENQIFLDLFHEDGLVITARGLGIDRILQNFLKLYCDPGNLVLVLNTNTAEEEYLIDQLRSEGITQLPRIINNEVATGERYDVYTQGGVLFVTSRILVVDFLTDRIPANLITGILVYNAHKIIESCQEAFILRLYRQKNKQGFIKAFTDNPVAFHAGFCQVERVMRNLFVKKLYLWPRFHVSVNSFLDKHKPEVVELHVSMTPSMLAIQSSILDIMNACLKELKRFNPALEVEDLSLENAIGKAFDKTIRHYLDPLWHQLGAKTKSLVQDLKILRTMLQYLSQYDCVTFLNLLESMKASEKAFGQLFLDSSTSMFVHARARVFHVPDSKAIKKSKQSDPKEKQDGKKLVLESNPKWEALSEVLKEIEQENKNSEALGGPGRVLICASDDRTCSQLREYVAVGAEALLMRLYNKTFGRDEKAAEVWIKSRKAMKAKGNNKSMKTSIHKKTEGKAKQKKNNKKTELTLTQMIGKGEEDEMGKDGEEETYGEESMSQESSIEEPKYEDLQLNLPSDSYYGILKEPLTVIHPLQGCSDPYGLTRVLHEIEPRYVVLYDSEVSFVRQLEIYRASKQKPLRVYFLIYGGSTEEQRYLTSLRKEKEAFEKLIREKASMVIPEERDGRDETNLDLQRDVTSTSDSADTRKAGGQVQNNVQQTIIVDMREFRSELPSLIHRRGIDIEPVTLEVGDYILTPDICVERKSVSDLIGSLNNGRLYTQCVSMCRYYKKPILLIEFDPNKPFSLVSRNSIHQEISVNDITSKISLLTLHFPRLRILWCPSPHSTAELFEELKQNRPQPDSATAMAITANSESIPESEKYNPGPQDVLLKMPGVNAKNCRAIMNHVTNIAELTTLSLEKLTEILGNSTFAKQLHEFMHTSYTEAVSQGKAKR
T1 sequence 2: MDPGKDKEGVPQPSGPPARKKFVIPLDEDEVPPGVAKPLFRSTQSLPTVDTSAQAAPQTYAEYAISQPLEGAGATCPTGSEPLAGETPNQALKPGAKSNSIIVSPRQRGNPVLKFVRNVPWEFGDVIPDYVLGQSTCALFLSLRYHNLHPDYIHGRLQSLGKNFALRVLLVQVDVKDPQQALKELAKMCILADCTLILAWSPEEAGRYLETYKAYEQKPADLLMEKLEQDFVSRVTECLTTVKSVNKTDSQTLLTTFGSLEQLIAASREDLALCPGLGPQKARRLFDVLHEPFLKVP

[2] = molecular target: T2, XPF L219R;ERCC1 wild type (hsERCC1) (Xenopus laevis;Homo sapiens?, UniProt A0A8J0PXV9;P07992 1-897;1-297, L219R|); assay: as above; conditions: protein: recombinant;recombinant; tags: FLAG;His; copies: 1;1; label: 5'-FAM on F1; three strands 1:1:1
T2 sequence 1: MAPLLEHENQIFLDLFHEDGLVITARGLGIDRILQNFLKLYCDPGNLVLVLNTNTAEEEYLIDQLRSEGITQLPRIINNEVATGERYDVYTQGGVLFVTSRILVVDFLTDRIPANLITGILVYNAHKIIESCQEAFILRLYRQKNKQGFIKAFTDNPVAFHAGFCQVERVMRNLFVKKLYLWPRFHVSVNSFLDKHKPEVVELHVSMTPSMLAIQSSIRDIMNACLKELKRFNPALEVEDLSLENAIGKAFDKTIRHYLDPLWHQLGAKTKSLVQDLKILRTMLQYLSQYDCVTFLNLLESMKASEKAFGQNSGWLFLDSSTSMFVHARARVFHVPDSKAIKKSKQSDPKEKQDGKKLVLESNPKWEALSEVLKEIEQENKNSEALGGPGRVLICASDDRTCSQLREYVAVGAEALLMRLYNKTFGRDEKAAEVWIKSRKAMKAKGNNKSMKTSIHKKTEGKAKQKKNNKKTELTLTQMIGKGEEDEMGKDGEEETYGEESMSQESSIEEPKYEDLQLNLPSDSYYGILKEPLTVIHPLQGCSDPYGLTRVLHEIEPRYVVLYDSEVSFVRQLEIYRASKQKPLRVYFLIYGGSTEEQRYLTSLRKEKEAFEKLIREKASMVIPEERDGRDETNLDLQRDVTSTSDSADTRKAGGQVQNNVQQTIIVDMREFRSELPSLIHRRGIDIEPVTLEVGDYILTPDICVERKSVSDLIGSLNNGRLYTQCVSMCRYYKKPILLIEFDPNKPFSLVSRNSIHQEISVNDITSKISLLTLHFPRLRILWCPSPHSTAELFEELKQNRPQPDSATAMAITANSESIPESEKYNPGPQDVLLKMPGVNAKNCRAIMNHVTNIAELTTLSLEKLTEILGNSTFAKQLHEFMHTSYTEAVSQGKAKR
T2 sequence 2: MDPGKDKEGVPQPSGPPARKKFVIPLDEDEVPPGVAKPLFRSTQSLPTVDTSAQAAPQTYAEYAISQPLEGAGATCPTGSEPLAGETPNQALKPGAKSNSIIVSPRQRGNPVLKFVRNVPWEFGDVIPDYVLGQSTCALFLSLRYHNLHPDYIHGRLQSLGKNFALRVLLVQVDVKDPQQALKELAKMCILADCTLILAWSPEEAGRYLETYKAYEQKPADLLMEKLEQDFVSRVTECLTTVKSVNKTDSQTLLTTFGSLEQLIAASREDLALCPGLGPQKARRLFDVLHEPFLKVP

B1: 3' flap DNA substrate (F1+F2+F3) (dsDNA)
DNA 1: CGCGATGCGGATCCAA
DNA 2: CCTAGACTTAAGAGGCCAGACTTGGATCCGCATCGC
DNA 3: GGCCTCTTAAGTCTAGG
B1: binds [1]; binds [2].

Source: article PMC5510004, “Recruitment and positioning determine the specific role of the XPF‐ERCC1 endonuclease in interstrand crosslink repair”
